From article PMC11585616, “Allosteric substrate release by a sialic acid TRAP transporter substrate binding protein” (Communications Biology, 2024)
Several values for one entry are separate records, joined by “and”; a condition that tells them apart may be missing. Identical values can stand only once.

Experiments:
Settings in all cases: both partners purified
VcSiaP [1] = target: T1, VcSiaP (Vibrio cholerae O1 El Tor N16961 …, UniProt Q9KR64); assay: SEC-MALS; Superose6 increase 10/300, room temperature, 50 mM Tris, 50 mM NaCl, pH 8.0; 120 uM of each protein
T1 construct: all residues 1-299 seen in the crystal structures; also called SiaP from V. cholerae; VcSiaPwt; not shown: His6, N-terminal, cleaved

VcSiaP [2] = target: T1, VcSiaP; assay: ITC; VHH titrated to the SBP, 25 °C, 50 mM Tris, 50 mM NaCl, pH 8.0; one set of sites model
VcSiaP [3] = target: T1, VcSiaP; assay: ITC; SiaP first loaded with Neu5Ac, then titrated with the VHH (sequential titration), 25 °C, 50 mM Tris, 50 mM NaCl, pH 8.0; competitive binding model for the wild type

T1 sequence (Q9KR64 23-321, one chain of several): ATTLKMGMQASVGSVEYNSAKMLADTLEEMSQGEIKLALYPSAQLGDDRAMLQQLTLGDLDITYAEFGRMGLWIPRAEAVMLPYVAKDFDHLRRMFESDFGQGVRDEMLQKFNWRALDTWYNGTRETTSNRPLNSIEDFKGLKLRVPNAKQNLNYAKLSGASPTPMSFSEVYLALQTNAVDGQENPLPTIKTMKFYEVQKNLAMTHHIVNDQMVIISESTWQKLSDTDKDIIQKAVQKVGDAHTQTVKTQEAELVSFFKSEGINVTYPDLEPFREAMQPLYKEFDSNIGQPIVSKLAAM

Row | Binder | stoichiometry N (VcSiaP [1]) | Kd (VcSiaP [2]) | stoichiometry N (VcSiaP [3])
1 | VHHVcP #1 (VHH, alpaca VHH raised against VcSiaP; A second construct (pET28a, N-terminal pelB-His6-TEV, tag cleaved) was made to improve crystallization; also called Vc#1; source: E. coli WK6, periplasmic extract, purified (Ni2+-NTA, SEC); not shown: HA, C-terminal, kept; His6, C-terminal, kept) VHH: QVQLVESGGGLVQAGGSLRLSCAASGRTFSSSTMGWFRQAPGKEREFVAGISWSDGSTYYADSVKGRFTISRDNAKNTVYLQMNSLKPEDSAVYYCAAERWLATPQAMAVTPNALDAWGQGTQVTVSS | 1 | 162 nM | 
2 | VHHVcP #2 (VHH, alpaca VHH raised against VcSiaP; A second construct (pET28a, N-terminal pelB-His6-TEV, tag cleaved) was made to improve crystallization; also called Vc#2; source: E. coli WK6, periplasmic extract, purified (Ni2+-NTA, SEC); not shown: HA, C-terminal, kept; His6, C-terminal, kept) VHH: QVQLVESGGRLVQTGGSLRLSCAASGDTFSNYVMGWFRQAPGKEREFVAAISWTGANSYYADSVAGRFTISRDNAKNTVALQMNSLKPEDTAIYYCAADHFHVTHRKYDYWGQGTQVTVSS | 1 | 13 nM and 16 nM | ~1
